Test results taken from IntAct's records for PubMed 20407420.

B1: Two-component response regulator-like APRR1 (Arabidopsis thaliana (Mouse-ear cress)), Q9LKL2 (parent)
chain: MDLNGECKGGDGFIDRSRVRILLCDNDSTSLGEVFTLLSECSYQVTAVKSARQVIDALNAEGPDIDIILAEIDLPMAKGMKMLRYITRDKDLRRIPVIMMSRQDEVPVVVKCLKLGAADYLVKPLRTNELLNLWTHMWRRRRMLGLAEKNMLSYDFDLVGSDQSDPNTNSTNLFSDDTDDRSLRSTNPQRGNLSHQENEWSVATAPVHARDGGLGADGTATSSLAVTAIEPPLDHLAGSHHEPMKRNSNPAQFSSAPKKSRLKIGESSAFFTYVKSTVLRTNGQDPPLVDGNGSLHLHRGLAEKFQVVASEGINNTKQARRATPKSTVLRTNGQDPPLVNGNGSHHLHRGAAEKFQVVASEGINNTKQAHRSRGTEQYHSQGETLQNGASYPHSLERSRTLPTSMESHGRNYQEGNMNIPQVAMNRSKDSSQVDGSGFSAPNAYPYYMHGVMNQVMMQSAAMMPQYGHQIPHCQPNHPNGMTGYPYYHHPMNTSLQHSQMSLQNGQMSMVHHSWSPAGNPPSNEVRVNKLDRREEALLKFRRKRNQRCFDKKIRYVNRKRLAERRPRVKGQFVRKMNGVNVDLNGQPDSADYDDEEEEEEEEEEENRDSSPQDDALGT
B2: Two-component response regulator-like APRR1 (Arabidopsis thaliana (Mouse-ear cress)), Q9LKL2 (parent)
chain: B1 chain
partner: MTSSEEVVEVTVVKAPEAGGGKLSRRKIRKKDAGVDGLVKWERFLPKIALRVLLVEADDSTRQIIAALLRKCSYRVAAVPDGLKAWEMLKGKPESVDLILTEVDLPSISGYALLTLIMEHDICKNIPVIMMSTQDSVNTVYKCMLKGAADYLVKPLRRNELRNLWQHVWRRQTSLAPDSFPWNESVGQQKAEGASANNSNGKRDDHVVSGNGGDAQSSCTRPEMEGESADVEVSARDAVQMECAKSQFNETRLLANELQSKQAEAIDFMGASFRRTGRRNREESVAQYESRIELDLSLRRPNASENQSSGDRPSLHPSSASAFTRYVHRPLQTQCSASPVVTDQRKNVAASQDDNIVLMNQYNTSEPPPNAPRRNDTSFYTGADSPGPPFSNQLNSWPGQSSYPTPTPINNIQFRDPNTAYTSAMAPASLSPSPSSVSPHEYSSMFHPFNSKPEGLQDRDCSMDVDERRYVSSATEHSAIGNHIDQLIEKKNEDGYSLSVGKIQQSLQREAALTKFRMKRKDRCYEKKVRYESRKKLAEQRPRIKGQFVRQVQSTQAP

Variants of: B1
Details: with ado1_arath ADO1, Q94BT6
Sequence of ado1_arath ADO1, Q94BT6 (Q94BT6 whole entry): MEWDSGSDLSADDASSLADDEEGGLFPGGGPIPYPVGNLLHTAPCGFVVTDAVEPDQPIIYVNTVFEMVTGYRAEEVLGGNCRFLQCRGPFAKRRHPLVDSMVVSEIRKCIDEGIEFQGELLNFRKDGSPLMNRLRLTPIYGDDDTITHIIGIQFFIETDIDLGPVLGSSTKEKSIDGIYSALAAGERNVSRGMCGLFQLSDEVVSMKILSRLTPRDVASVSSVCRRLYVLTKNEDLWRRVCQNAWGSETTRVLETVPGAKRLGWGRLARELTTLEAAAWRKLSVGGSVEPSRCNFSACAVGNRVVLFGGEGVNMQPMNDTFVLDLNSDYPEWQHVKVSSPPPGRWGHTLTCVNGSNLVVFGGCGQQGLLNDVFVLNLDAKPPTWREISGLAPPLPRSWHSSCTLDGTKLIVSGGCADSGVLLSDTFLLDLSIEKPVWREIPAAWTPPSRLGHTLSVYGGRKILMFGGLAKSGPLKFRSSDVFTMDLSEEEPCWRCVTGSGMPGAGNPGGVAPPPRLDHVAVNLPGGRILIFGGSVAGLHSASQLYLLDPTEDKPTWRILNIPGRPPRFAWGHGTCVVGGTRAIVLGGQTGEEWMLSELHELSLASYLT

effect of a mutation on the interaction	Variant
decreasing interaction	P96L

Variants of: B2
Details: with aprr5_arath APRR5, Q6LA42

effect of a mutation on the interaction	Variant
decreasing interaction	P124S

Variants of: B2
Details: with aprr5_arath APRR5, Q6LA42
Remark: another data set of the same source

effect of a mutation on the interaction	Variant
disrupting interaction	P96L
